Experimental data: patent US20090233850A1 (PHILADELPHIA HEALTH AND EDUCATION CORPORATION D B A DREXEL …, published 2009)
Positions count from the first letter of the chain named.

Legend:
[1] = biological target: T1, HIV-1 SF162 gp120 (Clade B) (HIV-1 SF162, UniProt P19550 32-502); test: ELISA, 100 ng gp120 adsorbed on the plate, 50 nM CVN, detection with polyclonal anti-CVN, BSA background subtracted
T1 construct: domain: gp120

[2] = biological target: T2, recombinant monomeric HIV-1 YU2 gp120, produced in Drosophila S2 cells (HIV-1 YU2, UniProt P35961 32-498, limits assumed, glycosylated (high-mannose glycans are the CVN binding sites)); test: competition ELISA on plate-adsorbed YU2 gp120; competitor mAb 2G12 at 50 ug/ml; percent of control without L5
T2 construct: domain: gp120

[3] = biological target: T2, recombinant monomeric HIV-1 YU2 gp120, …; test: competition ELISA, adsorbed YU2 gp120, increasing L5 with 2 ug/ml mAb 17b as competitor; inhibition of mAb 17b binding to gp120, ELISA
[4] = biological target: T2, recombinant monomeric HIV-1 YU2 gp120, …; test: competition ELISA on plate-adsorbed YU2 gp120; competitor mAb F105 at a 1:20,000 dilution; percent of control without L5
[5] = biological target: T2, recombinant monomeric HIV-1 YU2 gp120, …; test: ELISA, 100 ng YU2 gp120 adsorbed on the plate, serial dilutions of L5, detection with polyclonal anti-CVN, BSA background subtracted
[6] = biological target: T2, recombinant monomeric HIV-1 YU2 gp120, …; test: competition ELISA on plate-adsorbed YU2 gp120; blocked ligand sCD4 at 0.5 ug/ml, detected with anti-CD4; percent of uninhibited control
[7] = biological target: T2, recombinant monomeric HIV-1 YU2 gp120, …; test: ELISA, 100 ng YU2 gp120 adsorbed on the plate, serial dilutions of L5-S12p1, detection with polyclonal anti-CVN, BSA background subtracted
Protocol: Error bars indicate standard deviation.
YU2 was adsorbed to a 96-well EIA/RIA plate overnight at 4° C.
Ninety-six well plates (Corning) were coated with either 100 ng of the indicated gp120 or BSA overnight at 4° C. The wells were washed three times with 1×PBS-T (PBS, 0.1% Tween) and non-specific binding blocked with 1% (wt/vol) BSA in PBS. […] After a one hour incubation, the wells were washed and incubated with a 1/2500 dilution of anti-rabbit HRP (Amersham) for one hour at room temperature. The wells were washed three times and the extent of binding was then determined by OPD (o-phenylenediamine, Sigma) and absorbance measured at 450 nm.

B1: cyanovirin-N (CVN), recombinant, periplasmic expression in E. coli, hexa-histidine tagged (other)
chain: LGKFSQTCYNSAIQGSVLTSTCERTNGGYNTSSIDLNSVIENVDGSLKWQPSNFIETCRNTQLAGSSELAAECKTRAQQFVSTKINLDDHIANIDGTLKYEHHHHHH
notes: Lectin, 11 kDa
- binding result [1]: binds

B2: L5 chimera (CVN-12p1): CVN, linker of five Gly4Ser repeats, 12p1, C-terminal hexa-histidine tag (other)
chain: LGKFSQTCYNSAIQGSVLTSTCERTNGGYNTSSIDLNSVIENVDGSLKWQPSNFIETCRNTQLAGSSELAAECKTRAQQFVSTKINLDDHIANIDGTLKYEGSGGGGSGGGGSGGGGSGGGGSGGGGSRINNIPWSEAMMHHHHHH
notes: Fusion protein, about 15 kDa; also called the chimera
- IC50 (read off the curve) [2]: ~40 nM
- IC50 [3]: 38 nM
- IC50 (read off the curve) [4]: ~20 nM
- EC50 (read off the curve) [5]: ~9 nM
- IC50 (read off the curve) [6]: ~20 nM

B3: L5-S12p1: chimera of CVN, linker of five Gly4Ser repeats and scrambled (non-sense) 12p1 peptide (other)
chain: B2 chain with R129W, I130R, N131I, N132M, I133M, P134I, W135P, M139N, M140N
notes: check the entry type; also called scrambled chimera
- EC50 (read off the curve) [7]: ~20 nM
